Experiment [1] has as its target T1, cynomolgus Nectin-4 extracellular domain (ECD) with C-terminal His6 (cynomolgus, UniProt Q96NY8 32-349 (human entry)).
T1 construct: also called Cyno Nectin-4-ECD; cynomolgus nectin-4-ECD
T1 chain: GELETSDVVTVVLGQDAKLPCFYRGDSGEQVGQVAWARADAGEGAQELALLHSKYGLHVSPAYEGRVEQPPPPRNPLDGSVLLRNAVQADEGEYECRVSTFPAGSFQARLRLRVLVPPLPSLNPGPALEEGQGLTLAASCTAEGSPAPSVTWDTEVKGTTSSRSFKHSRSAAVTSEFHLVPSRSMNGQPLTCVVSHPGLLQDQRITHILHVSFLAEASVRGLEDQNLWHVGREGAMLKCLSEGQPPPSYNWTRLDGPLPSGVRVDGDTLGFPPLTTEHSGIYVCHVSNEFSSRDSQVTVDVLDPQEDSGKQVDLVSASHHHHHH
The experiment in a line: SPR (Biacore 8K), DRUG B captured on Protein A chip, nectin-4-ECD as analyte, single-cycle kinetics, 1:1 fit, 37° C; 37° C., cynomolgus nectin-4-ECD.

The target in experiment [2] is T2, human Nectin-4 extracellular domain (ECD) with C-terminal His6 (human, UniProt Q96NY8 32-349).
T2 construct: also called human Nectin-4-ECD; human nectin-4 ECD
T2 sequence: T1 chain with A39V, V230I
Briefly: SPR (Biacore 8K), DRUG B captured on Protein A chip, nectin-4-ECD as analyte, single-cycle kinetics, 1:1 fit, 37° C; 37° C., human nectin-4-ECD. How it is done: (§1) Kinetic injection method used was “single cycle kinetics” (also known as “kinetic titration”) (Karlsson et al. (2006) Analytical Biochemistry. 349(1):136-147).
(§2) The interactions of DRUG B, i.e., an anti-Nectin-4 monoclonal antibody, with the extracellular domain (ECD) of human nectin-4 were analyzed by flowing nectin-4-ECD over DRUG B captured (200-400 RUs) on Biacore Series S Sensor Chip Protein A. DRUG B, at ˜1 μg/mL concentration was captured in flow cell 2 of each channel at flow rate 10 μL/min for 60 seconds (s) contact time while buffer was used for Flow cell 1 respectively. The human nectin-4-ECD analytes were prepared as a 5-membered 3-fold dilution series with top nominal concentration of 300 nM, and each analyte series was injected in order of ascending concentration using a single-cycle kinetics method. Association and dissociation times were monitored for 120s and 1800s, respectively, at 30 μL/min flow rate. The surfaces were regenerated with 75 mM phosphoric acid at pH 1.6 using two pulses of 15s at 30 μL/min flow rate.
(§3) To analyze the data, the following processing steps were applied. Reference responses from flow cell 1 (reference surface) were subtracted from the active responses from flow cell 2 (reaction surface) to obtain the subtracted data (2-1). […]

Experiment [3] has as its target T1, cynomolgus Nectin-4 extracellular …. Briefly: SPR (Biacore 8K), DRUG B captured on Protein A chip, nectin-4-ECD as analyte, single-cycle kinetics, 1:1 fit, 25° C; 25° C., cynomolgus nectin-4-ECD.
The target in experiment [4] is T3, hFcγIa (human, UniProt P12314 16-292).
T3 construct: extracellular domain; also called hFcγRI; CD64
T3 sequence (P12314 16-292): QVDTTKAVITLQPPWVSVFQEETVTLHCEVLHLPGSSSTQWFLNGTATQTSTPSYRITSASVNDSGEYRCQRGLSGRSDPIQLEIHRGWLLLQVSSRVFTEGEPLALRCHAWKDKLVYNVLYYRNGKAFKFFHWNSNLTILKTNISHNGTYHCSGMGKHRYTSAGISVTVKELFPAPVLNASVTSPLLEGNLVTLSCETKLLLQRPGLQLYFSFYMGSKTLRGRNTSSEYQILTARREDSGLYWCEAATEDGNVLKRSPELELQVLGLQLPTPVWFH
The experiment in a line: SPR (Biacore 8K), 25° C, antibody captured on nectin-4-coated chip, receptor ECD as analyte, single-cycle kinetics, 1:1 fit. The source says:
(§4) The data was processed and analyzed with Biacore 8K Evaluation Software Version 3.0.12.15655 (Cytiva, Global Life Sciences Solutions USA LLC, Marlborough, MA). Reference responses from flow cell 1 were subtracted from the active responses from flow cell 2 to obtain the subtracted data (2-1). The responses from the nearest buffer blank injection were then subtracted from the reference subtracted data (2-1) to yield double-referenced data. For hFcγRI, these double-reference data were fit to a simple 1:1 Langmuir binding model with mass transport to determine the apparent association (ka) and dissociation rate constants (kd). The apparent equilibrium dissociation constant or affinity constant was then calculated based on their ratio as (KD=kd/ka). Binding affinity KD values for all the other hFcγR interactions (hFcγIIa-H131, hFcγIIa-R131, hFcγIIIa, and FcγIIIaV158F) were analyzed using a “steady state” (or “equilibrium binding”) method due to their fast on rates and fast off rates.

The target of experiment [5] is T4, hFcRn ECD protein (human, UniProt P55899 24-297; P61769 21-119).
T4 construct: extracellular domain; also called human FcRn; neonatal Fc receptor
T4 sequence (P55899 24-297 limits assumed, chain 1 of 2): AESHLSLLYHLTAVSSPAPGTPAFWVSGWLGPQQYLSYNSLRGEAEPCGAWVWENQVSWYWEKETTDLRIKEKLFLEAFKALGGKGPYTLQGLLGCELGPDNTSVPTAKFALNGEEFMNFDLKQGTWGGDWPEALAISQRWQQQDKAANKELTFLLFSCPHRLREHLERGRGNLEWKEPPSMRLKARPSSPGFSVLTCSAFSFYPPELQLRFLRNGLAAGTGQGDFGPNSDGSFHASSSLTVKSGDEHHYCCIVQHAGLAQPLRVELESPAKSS
T4 sequence (P61769 21-119 limits assumed, chain 2 of 2): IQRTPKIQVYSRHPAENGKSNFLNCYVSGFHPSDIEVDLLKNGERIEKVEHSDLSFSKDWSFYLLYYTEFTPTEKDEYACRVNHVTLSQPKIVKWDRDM
The experiment in a line: SPR (Biacore 8K), 25° C, PBS pH 5.8, antibody captured on nectin-4-coated chip, hFcRn ECD as analyte, steady-state analysis. The method, then:
(§5) All experiments were performed at 25° C. using a Biacore 8K equipped with S-type sensor chips and the kinetics data analyses were done using the Biacore Insight Evaluation Software. The running buffer was PBS pH 5.8 with 0.01% Tween-20 for hFcRn interactions and the running buffer for capture was HBS-EP+. Analyte hFcRn ECD protein was used at its nominal concentrations. A “single cycle kinetics” injection mode was used.
(§6) The interactions of DRUG B and DRUG C with hFcRn were analyzed by flowing the hFcRn ECD protein over DRUG B or DRUG C captured on a nectin-4-coated CMS chip. Up to 2400 RU of human nectin-4 ECD were immobilized on both flow cells (1 and 2) of a CMS chip using amine chemistry following Cytiva amine coupling kit instructions. DRUG B or DRUG C were captured on flow cell 2 of each channel for 120 seconds at 10 μL/min at […] in HBS-EP+(100-200 RUs) in a surface preparation method. The hFcRn run was done in PBS pH 5.8 with 0.01% Tween-20. […] Association and dissociation times were monitored for 120s and 600s, respectively. […]
(§7) The data was processed and analyzed with Biacore 8K Evaluation Software Version 3.0.12.15655 (Cytiva, Global Life Sciences Solutions USA LLC, Marlborough, MA). […] Binding affinity KD values were analyzed using a “steady state” (or “equilibrium binding”) method due to their fast on rates and fast off rates.

In experiment [6] the target is T5, hFcγIIa-R131 (human, UniProt P12318 36-218).
T5 construct: extracellular domain; Position 131 is the customary mature-protein numbering, not the precursor numbering of the database entry; also called hFcγRIIa (CD32a) R131
T5 sequence (looked up): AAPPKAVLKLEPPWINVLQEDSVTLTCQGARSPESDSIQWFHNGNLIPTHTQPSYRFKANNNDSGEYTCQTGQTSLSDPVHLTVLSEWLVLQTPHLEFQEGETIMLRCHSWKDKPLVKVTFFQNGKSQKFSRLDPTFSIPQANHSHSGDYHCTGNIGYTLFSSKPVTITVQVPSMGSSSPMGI
Briefly: SPR (Biacore 8K), 25° C, antibody captured on nectin-4-coated chip, receptor ECD as analyte, steady-state analysis.
Excerpt: as §4

Experiment [7] concerns the target T6, hFcγIIa-H131 (human, UniProt P12318 34-217).
T6 construct: extracellular domain; H at position 131 of the H/R131 polymorphism; also called hFcγRIIa (CD32a) H131
T6 sequence (looked up): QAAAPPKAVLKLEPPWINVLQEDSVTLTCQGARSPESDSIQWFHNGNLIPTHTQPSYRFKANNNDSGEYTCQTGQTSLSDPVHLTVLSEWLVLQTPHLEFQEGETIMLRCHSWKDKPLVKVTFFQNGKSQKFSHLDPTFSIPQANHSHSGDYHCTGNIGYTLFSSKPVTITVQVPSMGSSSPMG
The description is as above.
Excerpt: as §4

Experiment [8] has as its target T2, human Nectin-4 extracellular domain …. Briefly: SPR (Biacore 8K), DRUG B captured on Protein A chip, nectin-4-ECD as analyte, single-cycle kinetics, 1:1 fit; temperature dropped in the text, 25° C by context; 25° C. (by context; temperature dropped in the text), human nectin-4-ECD. The method, then: as §1, §2, §3
Experiment [9] addresses T3, hFcγIa. The experiment in a line: SPR (Biacore 8K), 25° C, ADC captured on nectin-4-coated chip, receptor ECD as analyte, single-cycle kinetics, 1:1 fit.
Excerpt: as §4

Experiment [10] addresses T5, hFcγIIa-R131. Briefly: SPR (Biacore 8K), 25° C, ADC captured on nectin-4-coated chip, receptor ECD as analyte, steady-state analysis.
Excerpt: as §4

Experiment [11] has as its target T6, hFcγIIa-H131. Described as above.
Excerpt: as §4

Experiment [12] addresses T2, human Nectin-4 extracellular domain …. The experiment in a line: SPR, capture on chip with immobilized human nectin-4 ECD (FcγR runs).
In experiment [13] the target is T4, hFcRn ECD protein. The experiment in a line: SPR (Biacore 8K), 25° C, PBS pH 5.8, ADC captured on nectin-4-coated chip, hFcRn ECD as analyte, steady-state analysis. How it is done: as §5, §6, §7

Where a chain is given by its changes, count along the chain named.

B1: DRUG B (enfortumab similar antibody that specifically binds human nectin-4) (antibody, human IgG1, kappa)
heavy: not shown
light: DIQMTQSPSSVSASVGDRVTITCRASQGISGWLAWYQQKPGKAPKFLIYAASTLQSGVPSRFSGSGSGTDFTLTISSLQPEDFATYYCQQANSFPPTFGGGTKVEIKRTVAAPSVFIFPPSDEQLKSGTASVVCLLNNFYPREAKVQWKVDNALQSGNSQESVTEQDSKDSTYSLSSTLTLSKADYEKHKVYACEVTHQGLSSPVTKSFNRGEC
notes: Expressed in Expi293F cells, about 99% monomer; also called enfortumab similar Ab; Enfortumab similar mAb
On to B1, for which the Kd in experiment [1] is around 50.7 nM; in [2], around 36.3 nM; in experiment [3], around 22.6 nM; in the experiment with hFcγIa [4], 0.056 nM; in the experiment with hFcRn ECD protein [5] it was 767 nM; in the experiment with hFcγIIa-R131 [6], 783 nM. The Kd with hFcγIIa-H131 [7] was 772 nM; in experiment [8] it was around 14.5 nM.

B2: DRUG C (enfortumab vedotin similar antibody-drug conjugate) (antibody, human IgG1, kappa)
heavy: not shown
light: B1 light
modifications: MC-Val-Cit-PAB-MMAE linker-payload conjugated via interchain cysteines of the antibody; average drug-to-antibody ratio 3.85:1
notes: DRUG B conjugated to MC-Val-Cit-PAB-MMAE; also called enfortumab vedotin similar ADC; copies: 2 + 2
As to B2, the Kd with hFcγIa [9] came out at 0.091 nM; with hFcγIIa-R131 [10], 846 nM; with hFcγIIa-H131 [11], 921 nM; with hFcRn ECD protein [13], 812 nM. Besides, the binding result in [12] is “binds”.

The values are drawn from patent US20240010701A1 (ALX ONCOLOGY, published 2024).
